Results taken from US20250236667A1, “ANTIBODIES TO MUTANT CALRETICULIN AND USES THEREOF” (CENTRAL ADELAIDE LOCAL HEALTH NETWORK INC, priority 2021, published 2025).

How the values were obtained:
[1] = system: primary CD34+ cells from JAK2 V617F myelofibrosis samples; assay: TPO-independent megakaryocyte differentiation in liquid culture; assay type: cell-based, human; details: 3 out of 3 JAK2 V617F myelofibrosis samples
Text: (§1) Patient samples were collected with informed consent from the South Australian Cancer Research Biobank (SACRB: Adelaide, Australia). Primary CD34+ stem/progenitor cells from peripheral blood samples from patients with JAK2^V617F or CALR mutant myelofibrosis were purified by flow cytometry using CD34-APC antibody, anti-human CD45RA Brilliant Violet 605, anti-CD90 FITC, anti-human CD123-PE, anti-human CD38 PE-Cy7, or with CD34-APC antibody, anti-human CD3 FITC, anti-human CD19-PE (clone H1B19) and anti-human CD14 PE-Cy7.
(§2) For megakaryocyte differentiation assays, CD34+ cells derived from cord blood or from patient peripheral blood mononuclear fractions were plated in Megacult (MegaCult™-C Collagen and Medium with Lipids) with added IL-3 and IL-6 (10 ng/ml) in the presence or absence of 50 ng/mL TPO. Cells were plated at an initial density of 1800 cells/well and cultured for 12 days at 37° C. and 5% CO2. Primary PMF CD34+ cells were cultured in StemCell Pro supplemented with human recombinant SCF (25 ng/mL), IL-6 and IL-9 (10 ng/ml) to allow differentiation into megakaryocytes. CD34+cord blood cells were cultured in 50 ng/mL SCF, 50 ng/ml TPO, 20 ng/ml IL-6 and 20 ng/ml IL-9. Both IgG and 4D7 were added at 20 μg/mL. All cytokines are from Preprotech. Culture media was replenished every 3 days and cells were assessed for megakaryocyte differentiation on day 12 using anti-human CD41/61 PE-Cy7 (Clone A2A9/6) and CountBright beads (Thermo Fisher) to enumerate cell numbers. CD34+obtained from UCB were plated in MethoCult containing cytokines (H4434). Cells were seeded at approximately 100 cells per well and were cultured in the presence of 20 μg/mL 4D7 or control IgG antibody and scored for colony and blast forming units at 12-14 days.

[2] = system: primary CD34+ cells from patients with CALR mutant myelofibrosis; assay: as above; assay type: cell-based, human
Text: as §1, §2

B1: 4D7: rat monoclonal IgG2a antibody against the mutant CALR neoepitope; VH SEQ ID NO: 5, VL SEQ ID NO: 7 (antibody, listed as Rattus rattus, V domains shown)
VH: QVQLQQSGAELAKPGSSVKISCKASGYTFTNYDMSWIKQRPGQALEWIGAINPGNGVTDYNEKFRGKATLTVDKSSSTAFMQLSSLTPEDTAVYHCAREYRDNYGYFDYWGQGVMVTVSS
VL: DIVLTQTPVSLSVTLGDQASISCRSSQSLEYSDGYTYLDWFLQKPGQSPQLLIYEVSSRFSGVPDRFIGRGSGTDFTLKISRVEPEDLGVYYCFQATHDPFTFGSGTKLEIK
[1]
  inhibition of CD41+CD61+ megakaryocyte progenitors: No significant inhibition
[2]; 20 μg/mL, day 12, normalised to IgG
  mean decrease of CD41+ cells across CALR mutant samples: 55%
[2]; additional samples in 2 independent patients (Graz), including type 2 CALR (5 base pair insertion)
  inhibition of CD41+ megakaryocytes compared to IgG control: evidence of inhibition
[2]; four out of 5 mutant CALR MF patient samples, 20 μg/mL, 12 days, vs IgG
  inhibition of TPO-independent growth of CD41+CD61+ megakaryocyte progenitors: at least 50%
[2]; patient sample with a 34 base pair deletion
  inhibition of CD41+CD61+ megakaryocyte progenitors: weaker inhibition
